Assay results taken from patent US20250136699A1 (JIANGSU BIOJETAY BIOTECHNOLOGY, published 2025).
Read-outs that look alike come from different tables or passages of the source.

T1: musculus FcRn-alpha (mouse, UniProt Q61559 22-297, limits assumed)
T1 construct: Alpha chain alone; also called mFcRn; mouse FcRn; not shown: His tag and Avi tag
T1 sequence: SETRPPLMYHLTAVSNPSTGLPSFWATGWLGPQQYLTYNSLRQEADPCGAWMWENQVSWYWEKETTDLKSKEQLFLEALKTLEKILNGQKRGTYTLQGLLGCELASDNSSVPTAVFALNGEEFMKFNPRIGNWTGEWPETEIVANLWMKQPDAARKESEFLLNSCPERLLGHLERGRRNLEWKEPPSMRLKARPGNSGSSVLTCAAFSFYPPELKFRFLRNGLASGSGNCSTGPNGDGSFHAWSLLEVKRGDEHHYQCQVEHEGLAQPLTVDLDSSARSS

T2: Rattus norvegicus FcRn-alpha (rat, UniProt P13599 23-298)
T2 construct: Alpha chain alone; also called rFcRn; rat FcRn; not shown: His tag and Avi tag
T2 sequence: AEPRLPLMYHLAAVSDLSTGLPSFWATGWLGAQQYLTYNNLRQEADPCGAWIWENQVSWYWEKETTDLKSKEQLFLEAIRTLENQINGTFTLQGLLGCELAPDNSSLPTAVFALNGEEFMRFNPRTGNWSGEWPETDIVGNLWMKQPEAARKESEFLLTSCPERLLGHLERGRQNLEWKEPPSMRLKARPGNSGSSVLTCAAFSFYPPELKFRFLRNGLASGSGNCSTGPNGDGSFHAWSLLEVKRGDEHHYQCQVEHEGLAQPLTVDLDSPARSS


Experiments:
musculus FcRn-alpha = molecular target: T1, musculus FcRn-alpha; test: ELISA: mFcRn coated, antibody titrated, goat anti-human IgG Fab-HRP, OD450
human B2M [1] = molecular target: T3, human B2M (human, UniProt P61769 21-119, limits assumed); test: ELISA: human B2M coated, antibody titrated, OD450
T3 construct: also called beta-2-microglobulin; not shown: His tag and Avi tag

human FCGRT [2] = molecular target: T4, human FCGRT (human, UniProt P55899 24-297, biotinylated (Avi tag) in the blocking assays); test: competition ELISA: human IgG coated, biotinylated human FCGRT plus antibody, SA-HRP
T4 construct: Alpha chain alone, expressed in Expi293 cells with His and Avi tags; also called FCGRT of human FcRn protein; biotinylated human FCGRT; not shown: His tag and Avi tag
T4 sequence (P55899 24-297 limits assumed): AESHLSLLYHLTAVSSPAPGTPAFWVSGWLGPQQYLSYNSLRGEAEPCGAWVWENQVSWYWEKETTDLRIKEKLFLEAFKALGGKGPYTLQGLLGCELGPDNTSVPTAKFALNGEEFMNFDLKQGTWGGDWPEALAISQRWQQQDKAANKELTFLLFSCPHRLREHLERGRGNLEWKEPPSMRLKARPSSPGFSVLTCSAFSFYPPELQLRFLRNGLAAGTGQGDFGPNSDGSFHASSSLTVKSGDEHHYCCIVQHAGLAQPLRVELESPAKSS

[3] = molecular target: T5, Human recombinant FCGRT & B2M Heterodimer Protein (hFcRn) (human, UniProt P55899 24-297; P61769 21-119); test: ELISA, hFcRn coated at 1 ug/mL, IgG4 antibody titrated, anti-human IgG Fab-HRP
T5 construct: Bought protein; also called human FcRn
Experimental: (§1) hFcRn binding of purified full-length chimeric antibodies: The hFcRn antigen binding ELISA was performed on the purified full-length chimeric antibodies (reformatted as IgG4). Briefly, plates were coated overnight at 4° C. with 1 μg/mL of hFcRn (cat #CT009-H08H) in PBS. After removing the coating solution, the wells were blocked by adding blocking buffer and incubated at room temperature for 1 hour. Plates were then washed 6 times with wash buffer. Serial dilutions of purified antibodies in PBS were added to individual wells followed by incubation at room temperature for 1 hour. Plates were washed 6 times with wash buffer. […] Plates were incubated at 37° C. for 1 hour, washed 6 times with wash buffer, and developed for 5-10 minutes with 50 L/well of TMB substrate, then quenched with 2M H₂SO₄. […] The ELISA results (OD450) were analyzed, and the binding curves were generated by Graphpad PRISM.

[4] = molecular target: T2, Rattus norvegicus FcRn-alpha; test: ELISA: rFcRn coated, antibody titrated, goat anti-human IgG Fab-HRP, OD450
Experimental: as §1
(§2) Analysis of cross-reactivity to FcRn from different species: To examine whether the anti-FcRn antibodies bind to FcRn from different species, antigen binding ELISA assays were performed as described above except that cynoFcRn, mFcRn, or rFcRn was used in the assay instead of hFcRn.

human FCGRT [5] = molecular target: T4, human FCGRT; test: ELISA: human FCGRT coated, antibody titrated, goat anti-human IgG Fab-HRP, OD450
Experimental: (§3) Measurement of the binding specificity of anti-FcRn antibodies to FCGRT and B2M by EILSA: Briefly, human FCGRT or B2M was coated on a 96-well plate at 4° C. overnight, after removing the coating solution, a blocking buffer containing 1% BSA was added into the plates followed by incubation at room temperature for 1 hour to block unspecific binding. Plates were then washed with wash buffer, and serial dilutions of anti-FcRn antibodies were added to the wells and incubated at room temperature for 1 hour. […] The wells were washed before adding 100 μL/well of TMB and incubated for 5-10 minutes at 37° C. 2M H₂SO₄ was used to stop the reaction. […] The ELISA results (OD450) were analyzed, and the binding curves were generated by Graphpad PRISM.

[6] = molecular target: T6, human FcRn (human FCGRT and B2M) on stably transfected MDCK cells (human, UniProt P55899 24-365; P61769 21-119); test: cell-based or functional assay
[7] = molecular target: T7, Cynomolgus monkey FcRn-alpha (cynomolgus monkey, UniProt Q8SPV9 24-297, limits assumed); test: ELISA: cynoFcRn coated, antibody titrated, goat anti-human IgG Fab-HRP, OD450
T7 construct: The printed entry looks like the full-length precursor (signal peptide, transmembrane and cytoplasmic parts); also called cynoFcRn; not shown: His tag and Avi tag
T7 sequence (Q8SPV9 24-297 limits assumed): as the sequence (P55899 24-297 limits assumed) above, with N39D, E44Q, G99S, S189G, S190N, L217M, S269T counted along it

human FCGRT [8] = molecular target: T4, human FCGRT; test: ELISA: human FCGRT coated, antibody titrated, goat anti-human IgG Fab-HRP, OD450; remark: listed apart in the source
Experimental: as §3

human FCGRT [9] = molecular target: T4, human FCGRT; test: blocking ELISA: human IgG coated, biotinylated human FCGRT plus titrated antibody, SA-HRP, OD450; blocked ligand: human IgG
Experimental: (§4) After removing the coating solution, the wells were blocked with a blocking buffer containing 1% BSA at room temperature for 1 hour. Plates were then washed with wash buffer. […] After incubation, 100 μL of SA-HRP (1:20,000) was added to each well and incubated for 1 hour at 37° C. The wells were washed before adding 100 μL/well of TMB and incubated for 5-10 minutes at 37° C. 2M H₂SO₄ was used to stop the reaction. […] The ELISA results (OD450) were analyzed, and the binding curves were generated by PRISM.

human B2M [10] = molecular target: T3, human B2M; test: ELISA: human B2M coated, antibody titrated, OD450; remark: listed apart in the source
Experimental: as §3

[11] = molecular target: T5, Human recombinant FCGRT & B2M …; test: ELISA on coated hFcRn, IgG4 antibody titrated
Experimental: as §1

[12] = molecular target: T7, Cynomolgus monkey FcRn-alpha; test: ELISA on coated cynoFcRn, IgG4 antibody titrated
Experimental: as §1, §2

human FCGRT [13] = molecular target: T4, human FCGRT; test: ELISA on coated human FCGRT, IgG4 antibody titrated
Experimental: as §3

[14] = molecular target: T6, human FcRn (human FCGRT and B2M) on …; test: cell-based or functional assay; remark: listed apart in the source
human FCGRT [15] = molecular target: T4, human FCGRT; test: competition ELISA: human IgG coated, biotinylated human FCGRT plus antibody, SA-HRP; remark: listed apart in the source
Experimental: as §4

Molecule	EC50 (read off the curve) (musculus FcRn-alpha) [nM]	IC50 (human FCGRT [2]) [nM]	EC50 [3] [nM]	EC50 (read off the curve) (human FCGRT [5]) [nM]	IgG Recycle IC50 [6] [nM]	EC50 (read off the curve) [7] [nM]	EC50 (read off the curve) (human FCGRT [8]) [nM]	binding result (human B2M [1])	binding result [4]	also measured
ZLP44 (antibody, V domains shown, Full-length chimeric antibody; human kappa or lambda light constant domain) VH: EVQLQQSGPELVKPGASVKVSCKASGYIFTSYNMYWMKQSHGKSLEWIGYIDPYNGGTRYNQKFKGKATLTVDKSSSTAYMHLNSLTSEDSAVYYCAVDGYNGAMDYWGQGTSVTVSS VL: QIVLTQSPASLAVSLGQRATISCRASESVDSYGNSFMHWYQQKPGQPPKLLIYRASNLESGIPARFSGSGSRTDFTLTINPVEADDVATYYCQQSNEDPYTFGGGTKLEIK	–	12.3	0.673	~0.1	2.5	~0.1	–	no binding (tested: about 700 nM (Log[Ab] about 2.8))	no binding (tested: about 700 nM (Log[Ab] about 2.8))	–
ZLP64 (antibody, V domains shown, Full-length chimeric antibody; human kappa or lambda light constant domain) VH: QIQLLQSGPELVKPGASVKVSCKASGYIFTSYNMYWMKQSHGKSLEWIGYIDPYNGGTNYNQKFKGKATLTVDKSSSTAYMHLNSLTSEDSAVYYCAVDGYNGAMDYWGQGTSVTVSS VL: DIVLTQSPASLTVSLGQRATISCRASESVDRYGNSFMHWYQQKPGQPPKLLIYRASNLESGVPARFSGSGSRTDFTLTINPVEADDVASYYCQQSNEDPLTFGAGTKLELK	–	12.5	0.212	~0.3	10.7	~0.08	–	no binding (tested: about 700 nM (Log[Ab] about 2.8))	no binding (tested: about 700 nM (Log[Ab] about 2.8))	–
ZLP193 (antibody, V domains shown, Full-length chimeric antibody: mouse variable domains with human IgG1 or IgG4 heavy constant domain and human kappa or lambda light constant domain; also called chimeric anti-FcRn antibody ZLP193) VH: EVQLQESGPDLVKPSQSLSLTCTVTGYSFTSGYSWHWIRQFPGNRLEWMGYIHDSGGTNYNPSLKSRISITRDTSKNQFFLQLNSVTTEDTATYYCAREENYRYFDVWGAGTTVTVSS VL: DIQMMQSPAIMSASPGEKVTITCSASSSVSYMHWFQQKPGTSPKLWIYSTSNLASGVPARFSGSGSGTSYSLTISRMEAEDAATYYCQQRSSYPPTFGDGTRLEIK	~9	8.7	0.439	–	10.1	~0.3	~1	no binding (tested: about 700 nM (Log[Ab] about 2.8))	no binding (tested: about 700 nM (Log[Ab] about 2.8))	–
ZLP17 (antibody, V domains shown, Full-length chimeric antibody with human IgG1 or IgG4 heavy constant and human kappa or lambda light constant domain) VH: QIQLLQSGAELARPGASVKMSCKASGYTFTSYTMHWVKQRPGQGLEWIGYINPSSGYTNYNQKFKDKATLTADKSSSTAYMQLSSLTSEGSAVYYCARSGLRRVLDYWGQGTSVTVSS VL: ENVLTQSPAILSASPGEKVTMTCSASSSVSYMYWYQQKPGSSPRLLIYDTSNLASGVPVRFSGSGSGTSYSLTISRMEAEDAATYYCQQWSSYPRTFGGGTKLEIK	~30	–	–	–	3.24	~7	~20	no binding (tested: about 700 nM (Log[Ab] about 2.8))	–	IC50 (read off the curve) (human FCGRT [9]): ~20 nM
ZLP1-3-2 (antibody, V domains shown, also called humanized version of ZLP193) VH: QVQLQESGPGLVKPSETLSLTCAVSGYSFTSGYSWHWIRQPPGKGLEWIGYIHDSGGTNYNPSLKSRVTISRDTSKNQFSLKLSSVTAADTAVYYCAREENYRYFDVWGQGTLVTVSS VL: EIVLTQSPATLSLSPGERATLSCSASSSVSYMHWFQQKPGQSPRLWIYSTSNLASGIPARFSGSGSGTDYTLTISSLEPEDFAVYYCQQRSSYPPTFGQGTKVEIK	–	–	–	–	–	–	–	–	–	binding result (human B2M [10]): no binding (tested: about 700 nM (Log[Ab] about 2.8)); EC50 [11]: 2.95 nM; EC50 [12]: 3.12 nM; EC50 (human FCGRT [13]): 1.5 nM; IgG Recycle IC50 [14]: 4.04 nM; IC50 (human FCGRT [15]): 6.16 nM

More lines, main results first:

EC50 (read off the curve) (musculus FcRn-alpha) [nM]	IC50 (human FCGRT [2]) [nM]	EC50 [3] [nM]	EC50 (read off the curve) (human FCGRT [5]) [nM]	IgG Recycle IC50 [6] [nM]	EC50 (read off the curve) [7] [nM]	EC50 (read off the curve) (human FCGRT [8]) [nM]	Molecule	binding result (human B2M [1])	binding result [4]	also measured
30	–	–	–	–	–	–	Human IgG (Jackson ImmunoResearch, cat #009-000-003) (antibody)	–	–	–
–	8.88	–	–	–	–	–	ZLP57 (antibody, V domains shown, Full-length chimeric antibody with human IgG1 or IgG4 heavy constant and human kappa or lambda light constant domain) VH: QVQLKESGPDLVKPSQSLSLTCTVTGYSITSGYSWHWIRQFPGNKLEWMTYIHSSGSTNYNPSLKSRISITRDTSKNQFFLQLKSVTTEDTATYYCAREVYGNYYWYFDVWGAGTTVTVSS VL: DIVMTQSPAIMSASLGEEITLTCSASSSVSYMHWYQQKSGTSPKLLIYSTSNLASGVPARFSGSGSGTSYSLTISRMEAEDAATYYCQQRSSYPYTFGGGTKLEIK	no binding (tested: about 700 nM (Log[Ab] about 2.8))	–	–
–	10.9	0.981	~0.2	–	–	–	ZLP42 (antibody, V domains shown, Full-length chimeric antibody) VH: QVQLQQPGAELVKPGASVKLSCTASGFNIKDTYMYWVKQRPEQGLEWIGRIDPANGITKFDPKFQDKATVTADTFSNIAYLHLSSLTSEDTAVYYCTTTAVMATEAMDRWGQGTSVTVSS VL: QIVLTQSPASLAVSLGQRATISCRASESVDSYGNSFMHWYQQKPGQPPKLLIYRASNLESGIPARFSGSGSRTDFTLTINPVEADDVATYYCQQSNEDPYTFGGGTKLEIK	no binding (tested: about 700 nM (Log[Ab] about 2.8))	no binding (tested: about 700 nM (Log[Ab] about 2.8))	–
~10	–	–	–	–	~6	~20	ZLP198 (antibody, V domains shown, Full-length chimeric antibody with human IgG1 or IgG4 heavy constant and human kappa or lambda light constant domain) VH: EVKLMESGPDLVKPSQSLSLTCTVTGYSITSGYSWHWIRHFPGKKLEWMGYIHNSGSTNYNPSLKSRISISRETSKNQFFLQLNSVTTEDTATYYCAREGYGGYWYFDVWGAGTSVTVSS VL: DIVLTQSPAIMSASPGEKVTMTCSASSSVSYMYWYQQKPGSSPKPWIYGTSNLASGVPVRFSGSGSGTSYSLTISRMEAEDAATYYCQQRSSYPYTFGGGTKLEIK	no binding (tested: about 700 nM (Log[Ab] about 2.8))	–	–
~20	–	2.39	–	5.01	~0.8	~7	ZLP22 (antibody, V domains shown, Full-length chimeric antibody; human kappa or lambda light constant domain) VH: EVKLVESGAELARPGASVKMSCKASGYTFTSYAMHWVKQRPGQGLEWIGYINPSSGYTNYNQKFKDKATLTADKSSSTAYMQLSSLTSEDSAVYYCARKGLRYAVDYWGQGTSVTVSS VL: DIVMTQSPSSLSVSAGEKVTMSCKSSQSLLNSGNQKNYLAWYQQKPGQPPKLLIYGASTRESGVPDRFTGSGSGTDYTLTISSVQAEDLALYYCQQHYSTPYTFGGGTKLEIK	no binding (tested: about 700 nM (Log[Ab] about 2.8))	no binding (tested: about 700 nM (Log[Ab] about 2.8))	IC50 (read off the curve) (human FCGRT [9]): ~30 nM
